# Laboratory results from the DeepSol protein solubility set.
# Test: soluble on expression in E. coli; label from the status in PepcDB or PDB records
row,Sequence,soluble on expression in E. coli
1,KRETDNGHDVFESFEQMEKTAFVIPSAYGYDIKGYHVAPHDTPNTIIICHGVTMNVLNSLKYMHLFLDLGWNVLIYDHRRHGQSGGKTTSYGFYEKDDLNKVVSLLKNKTNHRGLIGIHGESMGAVTALLYAGAHCSDGADFYIADCPFACFDEQLAYRLRAEYRLPSWPLLPIADFFLKLRGGYRAREVSPLAVIDKIEKPVLFIHSKDDDYIPVSSTERLYEKKRGPKALYIAENGEHAMSYTKNRHTYRKTVQEFLDNMNDSTE,not soluble
2,SFTSMLSVNQAVSAERKLIDHLIIYIEHEAQRLEDIKRFFSRVTSLHDGIYNEPSDPIANPIAAFKLVKRLKSEWLNVVHSTEAEENIKVLREDYRRMESSLPKLEDLRGAAHGLMRLQDVYNLHVESLVRGHFQQISDPVDFYKLSVSDMLSGDDCFLVGKVAYDLEDYYHSVLWFEEAVRLFRGTEWSPENEGTLEDALDHLAFSHFKVCH,not soluble
3,MSLKFIVKPHPEIFVKSESVRKRFTKILESNIRIIVKARTQGVAVFNRRDHIEVTSNSDTYYAEVLEILTTTPGIQQVLEVQQSSFTDLHNIYEQVLELNRANLENKTFVVRAKRRGKHDFTSIELERYVGGGLNQAIASAKVKLINPDVTVQVEVVDELLNQVIARHKGLGGFPLGTQEDVLSLISGGFDSGVSSYLHIKRGSKVHYCFFNLGGPAHEIGVKQTAYYLWQKYGSSAKVRFIAIDFAPVVAEILEKIDDGQMGVVLKRMFMRTAGMVAEKFGIQALVTGEALGQVSSQTLTNLRHIDNVTDTLILRPLINWDKEDIIRLAREIGTEDFAKTMPEFCGVISKSPTVKAVKEKLEEEEAKFDFALLDQVVYNARQIDIRDIGKEGHHHHHH,soluble
4,MDLPQKKKFTESERAALAKKLDDDLDQFMEEMAARKSDKKEERKPFDFDDWCKEIDQHPAFMTEMPTDGKYQDTIEALQSMKYDKEDDEDKQMNAEHHKEEGNKHFKFKKYRWATDCYSNGIKENSPDRKLNAVLYFNRAAAQKHLGNLRSAIKDCSMGRKFDPTHLKGVIRGAECLLELEYAKDALNWIESSKKIFAFTKETSDTPDLTDDEKKFIDQLETLRVKSVELSLKEERDKRKSRAEERKETESKKQLLDALKERNLNLCPRVPFDRPELMDMARLTVSLPLMHSHECVKFDDDLNLVWPILLQYPEAGQTDVLTETNELTTVGELLKEVLNSPAQWDPEHKFNFENVRFFVSDEYDEYLMEVYEWNDFKSVLSMPGYQIKQGLPVIMIMTKEKAASSLEALAEDENRYVAK,soluble
5,KYKLVFLGEQAVGKTSIITRFMYDTFDNNYQSTIGIDFLSKTLYLDEGPVRLQLWDTAGQERFRSLIPSYIRDSAAAIVVYDITNRQSFENTTKWIQDILNERGKDVIIALVGNKTDLGDLRKVTYEEGMQKAQEYNTMFHETSAKAGHNIKVLFKKTASKL,soluble
6,MGSDKIHHHHHHMKLRCAIVDDEPLALSLLESYVNKTPFLELAGKYSSAVQAMKELPGNQIDLLFLDIQMPELNGLEFSKMVAPRTRIVFTTAFGQYAIDGYRVNALDYLLKPISYVDFLQAANKALQWFELVQKPEEVDSIFVKSDYKLVQVELKKILYIEGLKDYIKIYTEDAPKPILSLMSMKSMEELLPPARFMRVHRSFIVQKDKIRIIDRGRIVFDKTYIPVSDSYKQTFQTFLDERS,not soluble
7,MSGLEAKIAAIRDPDLQAELEAARGGFLFAPIVEHLLFRQRERDAARAQEGAQAEAREAMGRDRRRRDAVREVIESEPTGPENLQHLHSVLALCGLPYRDPGDARDFVREYGRNSLSLSAGRLKNPITGEMELQGLPYGPKARLVLLHLCTEAVRQRSPTIEVADSLSGFMKAMGFAVTGGERGTIGAFKEQLNRLAACSMQLGLWDGEGQASTLNVPPFRQLELWRRGDDGLVWQRTVSFHQDFYDSLIRHALPVDIRAARAFSGSARKLDLLFWTGYRLRALQRPLRLTWDNLHRQFGAENASLRSFRQAFKADLAGLLEVFPRLRIDLDEGGMLLHPADPGSLLVPPKLEHHHHHH,not soluble
8,MMGFEKVEHLLPDTVLDIVDVIGLAATEQLVKAIGGARFKFGKGKVDTERLAILVEAIGEVKTHELLQVYGGEELYVPRCGKALIQLRNHRFYQEFVKLRDIDKKSGLMAMTKLCPKYGISSRTGYTIINEMSRPAAQQAALF,not soluble
9,MPQEIPPAVKYKIYPEGAEGIDTVWERPGFKKGEIEARVKDVVILRGEPVPNSYKMLVEATFELPKKDKITQLGLVNRHGLVTRVHYASPFKGAILPGDIILQVNGTTVSFDEKQLTEHVDETTGGASLQSNVKTVKRKPTTTPKTEPVRAPHSLYPDFKVVVGKILNSKSETKITVLVARLKNRMSTSKIPNGILATQDHTIDLAILYQFKYLQLGLNVQQVDRKVVVNYTIPDSVSHCSLNIGEAIIAVDDKPINTLADNRQRFREGFEANGWIRLLVEYPNTDPIKNMVRGQLANVMRTAERPQYLLCGDVRKYFVEGIEALKNGKALAPILKEEEGPGEVGKKKSDAKVTKKDPAVGFNNTTEEFFIPAEWNSKLFVWLPPLKTKVTESASSNMPVKK,not soluble
10,MGHHHHHHSHMKTLEAHKDPHKEVVRSAEEAASVLATSISPEQCIKVLCPIIQTADYPINLAAIKMQTKVIERVSKETLNLLLPEIMPGLIQGYDNSESSVRKACVFCLVAVHAVIGDELKPHLSQLTGSKMKLLNLYIKRAQTGSGGADPTTDVSGQS,not soluble
11,GMTSREDEIRDFLATHGYADWNRTPLAGDASSRRYQRLRSPTGAKAVLMDWSPEEGGDTQPFVDLAQYLRNLDISAPEIYAEEHARGLLLIEDLGDALFTEVINNDPAQEMPLYRAAVDLLIHLHDAQTPELARLDPETLSEMTRLAFSEYRYAILGDAAEDNRKRFEHRFAQILSAQLEGDMVFVHRDFHAQNLLWLPEREGLARVGVIDFQDAKLGHRAYDLVSLLQDARRDVPAQVEAQMIDHYIQATGVDESHFRSAYAVIAVQRNMRILGIFARLSQRFGKRHYIEFVPRVWAHFERGLAHPALASAAEEILNALPAPAPEVLERLRA,soluble
12,SLSKRLLSLASLALLFGCAQQPNDRAQQYQQQTFPHILNRADVVESNKPRDYTEFSKQSELVVQGSASMAKIYRPLYEQLNEWVLQSGDPATLAQFGIQAAQLGGGDKQGNVLFTGYFSPVIELRHQPDSVFKYPVYGLPKCNKNCPTRAEIYQGALDGQGLELGYAENLIDPFIMEVQGSGFVHFGDDDTLEYFAYAGKNNKAYVSIGKVLIERGLVEREKMSLKAIKDWVLANDEATVRELLEENPSFVFFKPSAAAPVKGSAGIPLLPMASVAGDRSILPMGTPILAEVPLLNADGTWSGAHQLRLLIVLDTGGAVKQNHLDLYHGMGPRAGLEAGHYKHFGRVWKLGLENSPTQAPWALPPEKQQ,not soluble
13,MQQEHRECIEQCYECAAACDICASSCLREDNVEMMKHCIQLDMQCAAICRLAAQFMALESEYSQKLCRLCADICKACAEECARHDHDHCQNCARACSQCADACLKMAALEHHHHHH,not soluble
14,MLEELGKVVEFKGKGVELHLDGQGEPFLYPYMEYFLEKASRMKGVEVVSIQSNGTLLTEEKISAIEDYVTRINLSLSSLDEKTAKTLHGAYSVKKVKEVAEMIASSKMDLLIAPVWVPGYNDREIPKIIEFALEIGAGKKYPPLGIQKYIPYRYGRKAGKSMPFKEFYRRLEEYEKEYGVKLVLGPEDFGMEKRPK,not soluble
15,MSTSQEISDPAQATSSAQVKWPRYLEATLGFDNHWHPAAFDHELAEGEFVAVTMLGEKVLLTRAKGEVKAIADGCAHRGVPFSKEPLCFKAGTVSCWYHGWTYDLDDGRLVDVLTSPGSPVIGKIGIKVYPVQVAQGVVFVFIGDEEPHALSEDLPPGFLDEDTHLLGIRRTVQSNWRLGVENGFDTTHIFMHRNSPWVSGNRLAFPYGFVPADRDAMQVYDENWPKGVLDRLSENYMPVFEATLDGETVLSAELTGEEKKVAAQVSVWLPGVLKVDPFPDPTLIQYEFYVPISETQHEYFQVLQRKVEGPEDVKTFEVEFEERWRDDALHGFNDDDVWAREAQQEFYGERDGWSKEQLFPPDMCIVKWRTLASERGRGVRAARVEMSHHHHHH,soluble
16,MSKLASPQSVRALLERHGLFADKRFGQNFLVSEAHLRRIVEAARPFTGPVFEVGPGLGALTRALLEAGAEVTAIEKDLRLRPVLEETLSGLPVRLVFQDALLYPWEEVPQGSLLVANLPYHIATPLVTRLLKTGRFARLVFLVQKEVAERMTARPKTPAYGVLTLRVAHHAVAERLFDLPPGAFFPPPKVWSSLVRLTPTGALDDPGLFRLVEAAFGKRRKTLLNALAAAGYPKARVEEALRALGLPPRVRAEELDLEAFRRLREGLEGAV,soluble
